The subject of series [1] is DNAzyme. The experiment in a line: DNAzyme catalysis experiments: particle substrate vs ssDNA substrate. It counts as biochemical. On the procedure:
DNAzyme catalysis experiments. Fluorescence was directly measured at time points of 2 min, 5 min, 10 min, and 15 min after adding DNAzyme to F-ssDNA solutions in a 96-well plate. Maximum fluorescence for the DNAzyme (5 nM) added to micellar particles (0.14 g/L) at 15 minutes was set to a value of 1 for normalization of data. Complete consumption of particle bound substrate was confirmed by a calibration curve plotted for fluorescence vs concentration of a fluorescein-modified oligonucleotide (DNA-F—see above for synthesis and sequence). i.e. plateau in resulting curve is due to consumption of substrate not product inhibition. […] Fluorescent product from shell DNA cleavage was measured from supernatant that passed through a 10,000 MWCO spin tube filter. i.e. particles are left behind, and fluorescent product comes through for analysis at each time point. […]
The DNAzyme catalyst consists of a conserved DNA sequence forming a catalytic domain with 5′- and 3′-ends as recognition sequences.^22 Therefore, a DNA substrate with a single RNA base (rA) as the site of cleavage was chosen for incorporation in the DNA-brush copolymer architecture used to form micellar aggregates (FIG. 25). […] By centrifuging at 14,000×g for 30 seconds at given time points, the ssDNA product was separated from particles as it passed through the MWCO filter for analysis by fluorescence. […]

Series [2] is described as follows: Critical micelle concentration (CMC) determination with pyrene probe. Format: physicochemical. Conditions: micelles after DNA2 hybridization. On the procedure: Critical Micelle Concentration (CMC) determination. A stock solution of pyrene was prepared by adding 1 mg pyrene in 10 mL of 20 mM Tris buffer (pH 7.4) and sonicating for 12 hrs, followed by centrifugation at 12,000×g for 5 min. The supernatant containing pyrene as the fluorescent probe was utilized for this assay and measured on a plate reader fluorometer, SPECTRAMAX GEMINI EM (Molecular Devices). DNA-lipid concentration was measured via UV absorbance and micelles were accordingly diluted serially in 96-well microplates (black well, black bottom, FIA, Greiner Bio-One). Excitation was done over a 300-360 nm wavelength range and the emission was recorded at 390 nm. The slit width for excitation was fixed at 1 nm. The concentration was plotted on a logarithmic scale and the critical micelle concentration was determined at the intercept of the two tangents drawn where the decreasing surface tension becomes constant.

A short description of series [3]: Particle size by DLS, TEM, AFM, SEM. Format: physicochemical. An excerpt:
(§1) General Methods. All reagents were bought from TCI or Sigma-Aldrich and used without further purification. DNA synthesis reagents and modifiers were bought from Glen Research or AZCO scientific. 3,4-di(octadecyloxy)benzoic acid was synthesized via a standard literature procedure (Tuffin, R. P.; Toyne, K. J.; Goodby, J. W. J. Mater. Chem. 1996, 6, 1271-1282). All DNA was synthesized on an ABI-391 via standard solid phase synthesis on controlled pore glass supports. Fluorescence measurements were performed on a Zeiss LSM confocal fluorescence microscope. Reaction volumes of 50 μL were used in all fluorescence experiments of this type. […] DNA-surfactant and DNA concentrations were determined via UV-Vis on a Hitachi U-2810 spectrophotometer. Dh was determined by DLS on a Nano-ZS90 Malvern Instrument. Zeta potential was also measured on the Nano-ZS90 Malvern instrument. […] The identities of organic molecules were confirmed by ^1H (400 MHz) and ^13C (100 MHz) NMR spectra recorded on a Varian Mercury Plus spectrometer. […]
General Methods. […] Fluorescence measurements were performed with a microplate reader (Perkin Elmer, HTS7000 Plus, λex=485 nm, λem=535 nm) using black 96 well plates. Reaction volumes of 100 μL were used in all fluorescence experiments of this type. […]

A short description of series [4]: Zeta potential measurement with variable MgCl2 concentration. Particulars: vesicles, 5 mM MgCl2. It counts as physicochemical.
Description: as §1
Zeta potential measurement with variable MgCl2 concentration. […] The zeta potential of these samples with variable MgCl2 concentrations was then measured by a Nano-ZS90 Malvern instrument. […]

d = 2'-deoxy (DNA); r = 2'-OH (RNA)

As for “Fluorescein-5′-TCGCACCCrAGTCTCTCTCC-3′-Dabcyl (DNA TCGCACCCAGTCTCTCTCC; sugars from the 5' end d8 r1 d10, backbone not given here; further chemistry not fully specified) [F-ssDNA, fluorogenic single-stranded DNA substrate]”, in series [1] (2 μM substrate, 5 nM catalyst), the DNAzyme turnovers was determined as 1.5 turnovers. For the same substance, in series [1] (F-ssDNA 1 μM, DNAzyme 5 nM), the “DNAzyme turnover over the same time scale (15 minutes)” value is “low turnover”.

In series [2], “DNA1-lipid: 3,4-di(octadecyloxy)benzoic acid conjugated to 5′-amino 9-mer ssDNA 5′-NH2-TCGCACCCA-3′; assembles into vesicles” displayed a critical micelle concentration of 300 nM. In series [3] (after DNA2 addition to vesicles), the micelle size is on record as 20-25 nm. In series [3] (spherical vesicles after dialysis, Tris 50 mM pH 7.4), the vesicle diameter result was “approx. 500 nm”. The substance also registered a zeta-potential in series [4] of −13 mV.

(Values after patent publication US9040626B2, “Nanofibers and morphology shifting micelles” (The Regents of the University of California, priority 2009, dated 2015).)
